The text below walks through data of patent publication US20100183625A1, “Treatment of Mucositis with Kallikrein Inhibitors” (Dyax Corp., priority 2009, published 2010).

One assay addresses T1, rat pKal (Rattus norvegicus, UniProt P14272).
T1 construct: active plasma kallikrein (pkal) has the single polypeptide chain cleaved at a single position
As to the kind of experiment: Ki,app against rat pKal. It is filed as biochemical. The following applies: IgG, Table 14, read-out: < nM Ki, app against rodent pKal. The method, then:
(§1) Fourth, antibodies were tested for their ability to inhibit pKal from other species, besides human, where the amino acid sequence of pKal has been determined in order to identify amino acids that may account for the differences in inhibition.

Another assay concerns the target prekallikrein (Homo sapiens, UniProt P03952). As to the kind of experiment: Surface plasmon resonance (SPR) assay for binding to prekallikrein. The following applies: IgG; Table 14. The method, then:
Antibodies that bound prekallikrein may be rendered inaccessible towards active plasma kallikrein inhibition and could substantially increase the in vivo dose required for efficacy. […] Specifically, human IgGs (X81-B01, M162-A04 (R84-H05); M160-G12 (R84-D02); and M142-H08) were captured on a CM5 chip using an anti-human Fc surface and 100 nM of plasma kallikrein or 100 nM or 500 nM prekallikrein. The prekallikrein was treated with aprotinin-sepharose to remove active plasma kallikrein.

For assay [1], the target named is T2, pKal (Homo sapiens, UniProt P03952).
T2 construct: two disulfide linked polypeptides; a heavy chain of approximately 52 kDa and a catalytic domain of approximately 34 kDa; host or cells: human plasma
T2 sequence (P03952 391-638 limits assumed): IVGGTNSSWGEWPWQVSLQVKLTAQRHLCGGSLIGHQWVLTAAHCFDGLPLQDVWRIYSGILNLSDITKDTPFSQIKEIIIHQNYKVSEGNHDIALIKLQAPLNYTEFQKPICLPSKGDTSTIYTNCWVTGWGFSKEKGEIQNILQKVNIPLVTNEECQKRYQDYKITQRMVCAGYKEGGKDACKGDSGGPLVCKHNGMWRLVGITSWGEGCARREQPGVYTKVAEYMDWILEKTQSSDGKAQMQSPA
T2 sequence (P03952 20-390 partner limits assumed): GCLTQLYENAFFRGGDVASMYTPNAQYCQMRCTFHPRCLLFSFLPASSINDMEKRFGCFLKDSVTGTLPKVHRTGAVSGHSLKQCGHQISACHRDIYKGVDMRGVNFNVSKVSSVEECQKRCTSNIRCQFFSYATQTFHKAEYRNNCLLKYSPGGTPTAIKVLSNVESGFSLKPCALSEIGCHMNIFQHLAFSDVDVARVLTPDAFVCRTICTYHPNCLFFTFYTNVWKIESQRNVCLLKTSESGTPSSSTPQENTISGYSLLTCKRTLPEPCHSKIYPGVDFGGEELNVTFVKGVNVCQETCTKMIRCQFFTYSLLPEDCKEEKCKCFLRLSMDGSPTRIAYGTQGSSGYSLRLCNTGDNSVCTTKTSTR
As to the kind of experiment: Competition for binding with aprotinin. To be noted: IgG; Table 14. The text has this: The region of pKal bound by selected anti-pKal antibodies was investigated using several methods. First, competition assays were used to determine whether the antibodies competed for binding to pKal with known active site-directed inhibitors. Second, antibodies were grouped according to whether they were inhibitors or just binders to pKal. Third, epitopes were investigated using synthetic peptides and peptidic structures based on the sequence and 3-dimensional structure of pKal. These peptidic structures are called “CLIPS” (Chemically Linked Peptides on Scaffolds) and the testing was performed by a fee for service company called Pepscan.

For assay [2], the target named is T2, pKal. The experiment in a line: Inhibition of pKal in presence of prekallikrein. It is filed as biochemical. To be noted: IgG; Table 14.
Assay [3] deals with fXIa, plasmin, and trypsin. The experiment in a line: Specificity with respect to other serine proteases. It is filed as biochemical. To be noted: IgG; Table 14.
The subject of assay [4] is pKal from different species. The experiment in a line: Kallikrein activity in activated citrated plasma of different species. It is filed as biochemical. The following applies: all the species except for pig. The text has this: (§2) All available sequence of pKal were obtained from public databases and aligned using ClustalW and regions were highlighted based on solvent accessibility, contact with an active site Kunitz inhibitor, and those peptides identified by CLIPS analysis (FIGS. 9A-9C). Citrated plasma from each of these species was obtained and activated using a commercially available prekallikrein activator (from Enzyme Research Laboratories) according to the instructions of the manufacturer. Kallikrein activity was then measured in each of the samples in the presence or absence of […]-B01.

In a further assay the test system is frog pKal. The experiment in a line: Kallikrein activity in activated citrated plasma, frog. It is filed as biochemical.
From the text: as §2

For assay [5], the target named is T2, pKal. The experiment in a line: BIACORE SPR competition with EPI-KAL2 for binding pKal. To be noted: IgG captured on chip, pKal 100 nM, 1 μM EPI-KAL2. The method, then:
FIG. 7A depicts the EPI-KAL2 competition for X81-B01 binding pKal. X81-B01 (IgG) was captured on an anti-human Fc fragment specific surface of a CM5 BIACORE® chip. pKal (100 nM) was flowed over the surface in the presence (lower sensorgram in the figure) or absence of 1 μM EPI-KAL2 (upper sensorgram in the figure).
FIG. 7B depicts the EPI-KAL2 competition for X67-D03 binding pKal. X67-D03 (IgG) was captured on an anti-human Fc fragment specific surface of a CM5 Biacore chip. pKal (100 nM) was flowed over the surface in the presence (lower sensorgram in the figure) or absence of 1 μM EPI-KAL2 (upper sensorgram in the figure).
Using a BIACORE® SPR assay antibodies of interest were tested for competion with a known active site inhibitor of pKal. EPI-KAL2 is potent (Ki,app=0.1 nM) active site inhibitor of pKal and a Kunitz domain inhibitor based on the first domain of tissue factor pathway inhibitor (Markland (1996) Iterative optimization of high-affinity protease inhibitors using phage display. 2. Plasma kallikrein and thrombin, Biochemistry 35(24):8058-67). Kunitz domains are known active site inhibitors of serine proteases, such as pKal.
As shown in FIGS. 7A-7B, the antibodies X81-B01 and X67-D03 were competed for binding to pKal in the presence or EPI-KAL2.
(In SPR one partner is held on a chip, and binding of the other changes the refractive index at the surface.)

The target in assay [6] is T3, human plasma kallikrein (human pKal) (Homo sapiens, UniProt P03952).
T3 construct: two disulfide linked polypeptides; a heavy chain of approximately 52 kDa and a catalytic domain of approximately 34 kDa; host or cells: human plasma
T3 sequence (P03952 391-638 limits assumed): as the sequence (P03952 391-638 limits assumed) above
T3 sequence (P03952 20-390 partner limits assumed): as the sequence (P03952 20-390 partner limits assumed) above
The experiment in a line: Ki,app against human pKal by steady state enzyme kinetics (in vitro protease cleavage assay, Pro-Phe-Arg-aminomethylcoumarin substrate). It is filed as biochemical. The text has this:
The inhibition constant (Ki) provides a measure of inhibitor potency; it is the concentration of inhibitor required to reduce enzyme activity by half and is not dependent on enzyme or substrate concentrations. The apparent Ki (Ki,app) is obtained at different substrate concentrations by measuring the inhibitory effect of different concentrations of inhibitor (e.g., inhibitory binding protein) on the extent of the reaction (e.g., enzyme activity); fitting the change in pseudo-first order rate constant as a function of inhibitor concentration to the Morrison equation (Equation 1) yields an estimate of the apparent Ki value. The Ki is obtained from the y-intercept extracted from a linear regression analysis of a plot of Ki,app versus substrate concentration.
Where v=measured velocity; v0=velocity in the absence of inhibitor; Ki,app=apparent inhibition constant; I=total inhibitor concentration; and E=total enzyme concentration.
The sequence of human plasma kallikrein that was used in selections and subsequent screening of binding proteins is shown below (accession number NP_000883.2). The human plasma kallikrein (86 kDa) that was used was purified from human plasma and activated with factor XIIa by a commercial vendor. Factor XIIa activates prekallikrein by cleaving the polypeptide sequence at a single site (between Arg371-Ile372, cleavage site marked by “/” in the sequence below) to generate active plasma kallikrein, which then consists of two disulfide linked polypeptides; a heavy chain of approximately 52 kDa and a catalytic domain of approximately 34 kDa [Colman and Schmaier, (1997) “Contact System: A Vascular Biology Modulator With Anticoagulant, Profibrinolytic, Antiadhesive, and Proinflammatory Attributes” Blood, 90, 3819-3843]
These antibodies were produced as Fab fragments in small scale (˜20 μg) and tested for inhibition against human pKal in an in vitro protease cleavage assay using Pro-Phe-Arg-aminomethylcoumarin as the synthetic peptide substrate. […] Five antibodies were then expressed in 293T cells and purified by protein A sepharose chromatography. The antibodies were analyzed by SDS-PAGE to determine which of the inhibitory mutants are not cleaved by the host cell protease(s) (data not shown).

Assay [7] has as its target T3, human plasma kallikrein (human pKal). Described as above. It is filed as biochemical. To be noted: IgG.
For the next assay, the system named is pig pKal. As to the kind of experiment: Kallikrein activity in activated citrated plasma, pig. It is filed as biochemical.
Chain of pig pKal (as listed by the source): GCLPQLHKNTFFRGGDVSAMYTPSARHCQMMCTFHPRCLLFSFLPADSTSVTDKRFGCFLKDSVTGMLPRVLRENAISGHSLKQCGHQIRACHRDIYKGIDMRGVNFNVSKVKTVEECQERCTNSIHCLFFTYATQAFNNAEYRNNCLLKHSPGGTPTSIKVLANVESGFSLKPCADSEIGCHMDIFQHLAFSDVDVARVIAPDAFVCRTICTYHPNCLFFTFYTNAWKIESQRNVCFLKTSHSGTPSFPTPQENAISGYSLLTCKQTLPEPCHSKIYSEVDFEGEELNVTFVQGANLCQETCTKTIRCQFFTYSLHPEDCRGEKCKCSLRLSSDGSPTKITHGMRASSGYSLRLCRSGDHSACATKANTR
Chain of pig pKal (as listed by the source): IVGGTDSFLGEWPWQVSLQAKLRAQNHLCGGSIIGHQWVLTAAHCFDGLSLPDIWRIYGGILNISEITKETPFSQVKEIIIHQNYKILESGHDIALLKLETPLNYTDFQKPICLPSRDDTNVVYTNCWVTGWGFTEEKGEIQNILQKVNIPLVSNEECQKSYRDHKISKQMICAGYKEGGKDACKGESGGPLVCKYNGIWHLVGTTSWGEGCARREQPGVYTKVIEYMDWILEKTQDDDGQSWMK
From the text: as §2

For another assay, the target named is T4, mouse pKal (Mus musculus, UniProt P26262).
T4 construct: active plasma kallikrein (pkal) has the single polypeptide chain cleaved at a single position
T4 sequence (P26262 391-638 limits assumed): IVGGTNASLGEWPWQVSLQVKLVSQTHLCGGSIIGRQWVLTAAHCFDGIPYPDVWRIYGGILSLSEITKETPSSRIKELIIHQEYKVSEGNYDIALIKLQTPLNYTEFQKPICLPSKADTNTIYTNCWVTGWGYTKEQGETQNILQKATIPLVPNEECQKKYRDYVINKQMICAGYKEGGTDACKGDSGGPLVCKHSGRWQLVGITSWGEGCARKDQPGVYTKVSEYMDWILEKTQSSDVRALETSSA
T4 sequence (P26262 20-390 partner limits assumed): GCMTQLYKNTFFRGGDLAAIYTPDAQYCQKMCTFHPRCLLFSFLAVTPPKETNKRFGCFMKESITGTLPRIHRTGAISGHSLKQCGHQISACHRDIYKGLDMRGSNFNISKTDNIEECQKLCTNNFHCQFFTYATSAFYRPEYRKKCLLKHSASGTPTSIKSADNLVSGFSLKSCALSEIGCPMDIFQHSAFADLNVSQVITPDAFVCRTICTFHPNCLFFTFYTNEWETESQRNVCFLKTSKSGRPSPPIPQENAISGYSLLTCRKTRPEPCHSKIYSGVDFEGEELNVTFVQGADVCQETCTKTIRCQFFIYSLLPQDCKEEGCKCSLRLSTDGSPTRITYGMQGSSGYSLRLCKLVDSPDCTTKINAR
The experiment in a line: Ki,app against mouse pKal. It is filed as biochemical. To be noted: mouse; IgG; Table 14; read-out: < nM Ki, app against rodent pKal. The method, then:
as §1
Antibodies that inhibit the activity of pKal either bind near the active site and preclude substrate interactions (competitive inhibitors) or that bind away from the active site and induce allosteric changes in the structure of the active site (noncompetitive inhibitors).

For a further assay, the system named is bradykinin generation. The experiment in a line: Inhibition of bradykinin generation. It is filed as biochemical. To be noted: IgG; Table 14.

Read-outs that look alike come from different tables or passages of the source.

Chain of prekallikrein (P03952 20-638): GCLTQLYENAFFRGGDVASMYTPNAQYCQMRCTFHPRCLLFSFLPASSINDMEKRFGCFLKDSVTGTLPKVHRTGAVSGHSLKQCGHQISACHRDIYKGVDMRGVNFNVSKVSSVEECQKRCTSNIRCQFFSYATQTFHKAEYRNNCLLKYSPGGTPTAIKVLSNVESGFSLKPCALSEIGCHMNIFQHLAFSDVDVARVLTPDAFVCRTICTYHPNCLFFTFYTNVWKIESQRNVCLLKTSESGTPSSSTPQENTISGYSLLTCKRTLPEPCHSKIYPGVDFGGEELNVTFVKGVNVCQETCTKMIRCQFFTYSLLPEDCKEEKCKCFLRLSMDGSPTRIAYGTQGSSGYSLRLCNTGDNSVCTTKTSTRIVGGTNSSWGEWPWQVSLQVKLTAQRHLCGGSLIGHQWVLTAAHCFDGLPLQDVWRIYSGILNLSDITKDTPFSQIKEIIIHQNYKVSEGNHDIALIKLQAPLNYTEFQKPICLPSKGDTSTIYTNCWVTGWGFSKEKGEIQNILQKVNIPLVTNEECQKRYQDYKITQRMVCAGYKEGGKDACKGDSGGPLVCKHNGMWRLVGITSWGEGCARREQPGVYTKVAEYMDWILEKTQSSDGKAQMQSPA
T1 sequence (P14272 391-638 limits assumed): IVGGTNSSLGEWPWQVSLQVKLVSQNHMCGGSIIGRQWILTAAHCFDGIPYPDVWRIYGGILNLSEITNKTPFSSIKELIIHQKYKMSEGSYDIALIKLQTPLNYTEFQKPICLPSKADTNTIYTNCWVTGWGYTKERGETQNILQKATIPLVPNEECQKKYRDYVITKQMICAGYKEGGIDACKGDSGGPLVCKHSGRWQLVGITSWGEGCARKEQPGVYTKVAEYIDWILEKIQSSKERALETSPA
T1 sequence (P14272 20-390 partner limits assumed): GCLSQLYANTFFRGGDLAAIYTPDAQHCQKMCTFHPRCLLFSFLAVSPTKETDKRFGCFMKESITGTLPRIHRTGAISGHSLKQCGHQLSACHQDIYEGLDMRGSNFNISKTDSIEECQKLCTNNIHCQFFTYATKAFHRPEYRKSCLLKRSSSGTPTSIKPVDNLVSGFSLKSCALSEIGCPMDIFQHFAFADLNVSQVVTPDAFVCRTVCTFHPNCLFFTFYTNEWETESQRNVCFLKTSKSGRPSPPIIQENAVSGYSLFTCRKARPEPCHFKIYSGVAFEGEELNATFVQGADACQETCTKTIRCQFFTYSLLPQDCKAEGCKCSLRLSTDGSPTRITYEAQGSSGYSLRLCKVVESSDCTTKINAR

B1: X81-B01: codon optimized and germlined version of X63-G06 as a full length human IgG produced in CHO cells (antibody, chains of the INN, looked up, V domains shown)
VH: EVQLLESGGGLVQPGGSLRLSCAASGFTFSHYIMMWVRQAPGKGLEWVSGIYSSGGITVYADSVKGRFTISRDNSKNTLYLQMNSLRAEDTAVYYCAYRRIGVPRRDEFDIWGQGTMVTVSS
VL: DIQMTQSPSTLSASVGDRVTITCRASQSISSWLAWYQQKPGKAPKLLIYKASTLESGVPSRFSGSGSGTEFTLTISSLQPDDFATYYCQQYNTYWTFGQGTKVEIK
modifications: IgG
notes: codon optimized and germlined version of X63-G06 as a full length human IgG produced in CHO cells
As to B1, the Ki in the assay with rat pKal was 0.14 nM; in assay [6] (Table 6, read-out: Human pKal (Ki, app nM)) it was 0.2 nM; in assay [6] (Table 15, read-out: human Ki, app) it was 0.1 nM; in assay [7] (Table 11, read-out: Ki, app) it was 0.2 nM; in [7] (Table 14, read-out: < nM Ki, app against human pKal), 0.2 nM; in [7] (pKal, germlined and sequence optimized for CHO cell expression, read-out: Ki,app), approximately 0.2 nM. In addition, the Ki with mouse pKal came out at 0.011 nM. In addition, the “Does not bind prekallikrein” value in the assay with prekallikrein is recorded as “no”. The “Competition for binding with aprotinin” value with pKal [1] is on record as “yes”. The “Inhibits pKal in presence of prekallikrein” value with pKal [2] was “yes”. Also, the “Specific inhibitor with respect to fXIa, plasmin, and trypsin” value in assay [3] is “yes”. Besides, the “inhibition of pKal from different species” value in assay [4] is listed as “inhibited”. In addition, the “inhibition of frog pKal” value with frog pKal was “inhibited”. Also, the “competition for binding to pKal in the presence of EPI-KAL2” value with pKal [5] is on record as “competed”. In addition, the “inhibition of pig pKal” value in the assay on pig pKal is “lack of inhibition”. Also, the Inhibits bradykinin generation entry in the assay on bradykinin generation is “yes”.
